According to paper PMC2756588:

How the values were obtained:
Assay in all cases: SPOT array
Abp1, P15891 = target: T1, Abp1, P15891; conditions: median of control spots 935
T1 sequence (P15891 535-592, looked up): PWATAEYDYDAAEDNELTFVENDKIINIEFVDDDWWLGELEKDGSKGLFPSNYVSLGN

Bbc1, P47068 = target: T2, Bbc1, P47068; conditions: median of control spots 796
T2 sequence (P47068 1-78, looked up): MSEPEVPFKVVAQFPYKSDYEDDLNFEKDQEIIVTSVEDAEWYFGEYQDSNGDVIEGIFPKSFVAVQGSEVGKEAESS

Bem1-1, P29366 = conditions: median of control spots 4282
Sequence of Bem1-1, P29366 (P29366 55-141): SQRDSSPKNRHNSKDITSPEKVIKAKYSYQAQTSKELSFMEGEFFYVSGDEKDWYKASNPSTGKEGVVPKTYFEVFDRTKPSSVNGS

Bem1-2, P29366 = conditions: median of control spots 4347
Sequence of Bem1-2, P29366 (P29366 139-227): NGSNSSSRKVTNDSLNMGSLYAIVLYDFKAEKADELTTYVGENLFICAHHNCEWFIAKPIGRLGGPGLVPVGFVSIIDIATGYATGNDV

Boi1, P38041 = target: T3, Boi1, P38041; conditions: median of control spots 1162
T3 sequence (P38041 1-86, looked up): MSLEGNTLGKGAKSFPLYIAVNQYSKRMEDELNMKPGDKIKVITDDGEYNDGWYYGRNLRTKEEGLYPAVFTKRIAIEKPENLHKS

Boi2, P39969 = target: T4, Boi2, P39969; conditions: median of control spots 1161
T4 sequence (P39969 32-116, looked up): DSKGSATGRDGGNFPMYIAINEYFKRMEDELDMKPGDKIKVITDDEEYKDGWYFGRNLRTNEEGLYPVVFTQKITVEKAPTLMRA

Bud14, P27637 = target: T5, Bud14, P27637; conditions: median of control spots 956
T5 sequence (P27637 247-328, looked up): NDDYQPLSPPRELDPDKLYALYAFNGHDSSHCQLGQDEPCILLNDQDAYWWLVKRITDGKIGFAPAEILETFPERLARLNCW

Bzz1-1, P38822 = target: T6, Bzz1-1, P38822; conditions: median of control spots 4446
T6 sequence (P38822 478-572, looked up): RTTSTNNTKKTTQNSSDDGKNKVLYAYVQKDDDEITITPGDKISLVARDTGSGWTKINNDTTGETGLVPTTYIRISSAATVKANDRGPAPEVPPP

Bzz1-2, P38822 = target: T7, Bzz1-2, P38822; conditions: median of control spots 4538
T7 sequence (P38822 568-633, looked up): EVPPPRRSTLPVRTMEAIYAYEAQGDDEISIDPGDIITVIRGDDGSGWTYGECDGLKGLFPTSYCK

Cdc25, P04821 = target: T8, Cdc25, P04821; conditions: median of control spots 969
T8 sequence (P04821 50-136, looked up): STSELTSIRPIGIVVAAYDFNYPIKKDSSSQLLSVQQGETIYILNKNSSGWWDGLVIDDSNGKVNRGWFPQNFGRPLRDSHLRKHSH

Cyk3, Q07533 = target: T9, Cyk3, Q07533; conditions: median of control spots 1451
T9 sequence (Q07533 1-83, looked up): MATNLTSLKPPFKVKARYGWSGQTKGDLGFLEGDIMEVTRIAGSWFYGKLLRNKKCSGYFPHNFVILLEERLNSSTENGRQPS

Fus1, P11710 = target: T10, Fus1, P11710; conditions: median of control spots 1200
T10 sequence (P11710 432-512, looked up): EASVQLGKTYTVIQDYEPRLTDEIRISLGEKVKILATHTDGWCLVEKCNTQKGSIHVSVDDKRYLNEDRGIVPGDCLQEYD

GST = conditions: median of control spots 978
Hof1, Q05080 = target: T11, Hof1, Q05080; conditions: median of control spots 4086
T11 sequence (Q05080 590-669, looked up): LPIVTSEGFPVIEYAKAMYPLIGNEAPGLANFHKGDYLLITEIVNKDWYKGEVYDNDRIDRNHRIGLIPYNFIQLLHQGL

Hse1, P38753 = target: T12, Hse1, P38753; conditions: median of control spots 1727
T12 sequence (P38753 208-285, looked up): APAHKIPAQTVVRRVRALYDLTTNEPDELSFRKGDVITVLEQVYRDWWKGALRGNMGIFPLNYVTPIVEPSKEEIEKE

Lsb1, P53281 = target: T13, Lsb1, P53281; conditions: median of control spots 388
T13 sequence (P53281 45-122, looked up): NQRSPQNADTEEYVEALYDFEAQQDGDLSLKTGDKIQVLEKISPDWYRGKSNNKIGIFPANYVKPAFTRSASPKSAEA

Lsb3, P43603 = target: T14, Lsb3, P43603; conditions: median of control spots 406
T14 sequence (P43603 385-451, looked up): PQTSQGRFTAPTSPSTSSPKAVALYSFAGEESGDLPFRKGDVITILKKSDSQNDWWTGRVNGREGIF

Lsb4, P32793 = target: T15, Lsb4, P32793; conditions: median of control spots 397
T15 sequence (P32793 402-468, looked up): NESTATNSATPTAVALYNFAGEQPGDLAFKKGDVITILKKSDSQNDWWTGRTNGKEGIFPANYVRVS

Myo3, P36006 = conditions: median of control spots 468
Myo5, Q04439 = target: T16, Myo5, Q04439; conditions: median of control spots 471
T16 sequence (Q04439 1072-1160, looked up): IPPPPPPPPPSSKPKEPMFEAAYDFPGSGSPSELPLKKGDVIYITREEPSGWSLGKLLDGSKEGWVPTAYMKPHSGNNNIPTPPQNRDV

Nbp2, Q12163 = target: T17, Nbp2, Q12163; conditions: median of control spots 357
T17 sequence (Q12163 103-180, looked up): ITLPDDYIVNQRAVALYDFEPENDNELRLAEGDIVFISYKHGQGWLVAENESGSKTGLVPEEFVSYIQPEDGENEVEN

Pex13, P80667 = target: T18, Pex13, P80667; conditions: median of control spots 1341
T18 sequence (P80667 295-386, looked up): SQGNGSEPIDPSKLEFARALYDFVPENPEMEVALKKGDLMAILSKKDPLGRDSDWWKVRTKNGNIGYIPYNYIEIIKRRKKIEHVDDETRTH

Pin3, Q06449 = target: T19, Pin3, Q06449; conditions: median of control spots 2171
T19 sequence (Q06449 53-122, looked up): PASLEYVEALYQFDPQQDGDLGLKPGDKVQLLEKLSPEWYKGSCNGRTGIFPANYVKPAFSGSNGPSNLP

Rvs167, P39743 = conditions: median of control spots 2707
Sequence of Rvs167, P39743 (P39743 419-482): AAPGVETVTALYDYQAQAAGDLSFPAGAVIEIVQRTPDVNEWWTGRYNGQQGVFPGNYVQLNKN

Sho1, P40073 = conditions: median of control spots 1148
Sequence of Sho1, P40073 (P40073 287-367): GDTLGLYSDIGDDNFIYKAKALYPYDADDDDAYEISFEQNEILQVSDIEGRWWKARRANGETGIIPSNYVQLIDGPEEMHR

Sla1-2, P32790 = target: T20, Sla1-2, P32790; conditions: median of control spots 712
T20 sequence (P32790 60-140, looked up): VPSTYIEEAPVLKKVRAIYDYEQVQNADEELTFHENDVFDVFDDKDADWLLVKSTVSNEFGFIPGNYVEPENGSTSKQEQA

Sla1-3, P32790 = target: T21, Sla1-3, P32790; conditions: median of control spots 5475
T21 sequence (P32790 344-424, looked up): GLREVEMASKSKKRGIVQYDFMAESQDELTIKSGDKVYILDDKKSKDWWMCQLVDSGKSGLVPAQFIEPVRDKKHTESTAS

Binder	SPOT intensity (Abp1, P15891)	SPOT intensity (Bbc1, P47068)	SPOT intensity (Bem1-1, P29366)	SPOT intensity (Bem1-2, P29366)	SPOT intensity (Boi1, P38041)	SPOT intensity (Boi2, P39969)	SPOT intensity (Bud14, P27637)	SPOT intensity (Bzz1-1, P38822)	SPOT intensity (Bzz1-2, P38822)	SPOT intensity (Cdc25, P04821)	SPOT intensity (Cyk3, Q07533)	SPOT intensity (Fus1, P11710)	SPOT intensity (GST)	SPOT intensity (Hof1, Q05080)	SPOT intensity (Hse1, P38753)	SPOT intensity (Lsb1, P53281)	SPOT intensity (Lsb3, P43603)	SPOT intensity (Lsb4, P32793)	SPOT intensity (Myo3, P36006)	SPOT intensity (Myo5, Q04439)	further results
GKFIPSRPAPKPPSS	231	138	1	14600	3	4	0	2	52	4	2	0	0	0	0	360	21	56	553	593	SPOT intensity (Nbp2, Q12163): 2880; SPOT intensity (Pex13, P80667): 362; SPOT intensity (Pin3, Q06449): 12; SPOT intensity (Rvs167, P39743): 5; SPOT intensity (Sho1, P40073): 22; SPOT intensity (Sla1-2, P32790): 0; SPOT intensity (Sla1-3, P32790): 492
DTFLPPPPPPPSNFE	0	0	0	0	1	3	0	3	0	0	0	0	0	0	0	0	0	0	518	453	SPOT intensity (Nbp2, Q12163): 0; SPOT intensity (Pex13, P80667): 8; SPOT intensity (Pin3, Q06449): 0; SPOT intensity (Rvs167, P39743): 0; SPOT intensity (Sho1, P40073): 0; SPOT intensity (Sla1-2, P32790): 0; SPOT intensity (Sla1-3, P32790): 0
VDFTLPPPPPPPGLD	0	0	0	0	2	0	0	1	1	0	0	0	0	143	0	0	0	0	491	367	SPOT intensity (Nbp2, Q12163): 0; SPOT intensity (Pex13, P80667): 2; SPOT intensity (Pin3, Q06449): 0; SPOT intensity (Rvs167, P39743): 0; SPOT intensity (Sho1, P40073): 0; SPOT intensity (Sla1-2, P32790): 1; SPOT intensity (Sla1-3, P32790): 0
DFTLPPPPPPPGLDE	0	0	0	1	0	0	0	0	0	0	0	0	1	6	0	0	0	0	345	306	SPOT intensity (Nbp2, Q12163): 3; SPOT intensity (Pex13, P80667): 0; SPOT intensity (Pin3, Q06449): 0; SPOT intensity (Rvs167, P39743): 0; SPOT intensity (Sho1, P40073): 0; SPOT intensity (Sla1-2, P32790): 0; SPOT intensity (Sla1-3, P32790): 0
